# Test results taken from PMC10443974.
# Molecular target: unmodified, wild-type (WT) human FcRn (neonatal Fc receptor) (human) (UniProt P55899)
# Assay: FcRn affinity chromatography with pH monitor
row,Substance,FcRn dissociation pH (mean) [pH]
1,NIST mAb (reference material RM8671) (antibody),7.22
2,adalimumab (antibody),7.39
3,briakinumab (antibody),7.81
4,cetuximab (antibody),7.25
5,rituximab (antibody),7.43

# Second part, the substance after the results:
row,FcRn dissociation pH (mean) [pH],Substance
1,7.12,cusatuzumab (antibody)
2,7.28,durvalumab (antibody)
3,7.34,margetuximab (antibody)
